Data as given in patent US12162937B2, “Methods of treating an inflammatory disorder by administering an antibody which binds to a connexin CX43 hemichannel” (BOARD OF REGENTS OF THE UNIVERSITY OF TEXAS SYSTEM, priority 2013, dated 2024).
“Also recorded” adds a separate entry of the source. Where two headings read alike, the source gives them in different places.

Experiments:
MDA-MB-231 cells = assay: Wound healing migration assay; format: cell-based; settings: cancer cells treated directly with AD
From the text: FIGS. 5A and 5B illustrate the results of studies using a wound healing migration assay. CM-AD from osteocytes inhibits MDA-MB-231 cell migration.
FIG. 6 illustrates results of another wound healing migration assay.
Opening of osteocytic Cx43 hemichannels mediate a negative effect on cancer cell migration. Cx43 hemichannels in osteocytes are opened by administration of AD or FFSS. The opened hemichannels permit the release of various factors into the medium producing a conditioned medium (CM). The released factor(s) in the AD- or FFSS-treated CM decrease cancer cell migration as determined by soft agar and wound healing assays. An example of a soft agar assay is diagrammed in FIG. 3. […] The soft agar assay is an assay for anchorage-independent growth, as contrasted with anchorage-dependent growth. Only cancer cells can grow on soft agar and their growth on this matrix indicates the extent of the cancer cell proliferation.
In certain aspects the methods include incubating primary osteocytes or osteocyte cell lines with a test reagent in α-MEM for various periods of time and collecting the supernatant (conditioned media) at various time points. In certain aspects breast or prostate cancer cells are incubated with CM and cancer cell proliferation, migration, and invasion are determined.

Cx43 hemichannels [1] = target: T1, Cx43 hemichannels (Mus musculus, UniProt P23242); settings: MLO-A5 osteoblasts, AD treatment
Experimental: Ethidium bromide dye uptake was conducted and quantified as compared to non-treated basal level of uptake. Study was carried out in calcium conditions. Low calcium conditions were used as control (opens hemichannels). […] MLO-Y4 osteocytic cells were treated with 20 μM AD for 30 min in the absence or presence of 1 μg/ml Cx43(E2) antibody. Ethidium bromide dye uptake assay was conducted and quantified as compared to non-treated basal level of uptake. The assays were carried out in the presence of calcium. Low calcium conditions were used as a control (opens hemichannels).

[2] = target: Cx43 hemichannels in osteocytes (Homo sapiens, UniProt P17302); settings: Plotkin et al., 2002; cited from earlier work
[3] = target: T2, gap junction channels (Hela cells transfected with Cx43) (Homo sapiens, UniProt P17302); assay: Parachuting dye transfer assay for gap junctions; format: cell-based; settings: Hela cells transfected with Cx43, calcein red-orange-AM / Oregon green 488 BAPTA-2-AM
T2 construct: expressed in transfected cells; host or cells: HeLa cells
Experimental: FIG. 15 illustrates parachuting dye transfer assay showing M2 and M7, but not M1 blocks gap junction channels. Hela cells transfected with Cx43 was used for parachuting dye transfer experiments. Donor cells were incubated with 5 μM calcein red-orange-AM (790 Da) which is permeable to gap junctions and 5 μM Oregon green 488 BAPTA-2-AM (1752 Da) which is non-permeable to gap junctions for 40 minutes at 37° C. Donor cells were treated with trypsin and separated preloaded cells were layered (‘parachuted’) over the top of the unlabeled recipient cells at a 1:4 donor to receiver ratio. Cells were allowed to attach for 90 min. The cells were examined under a fluorescence microscope.
Cell parachute dye-transfer assay for gap junctions. MLO-Y4 cells were grown to confluence in 12 well plates. The donor cells were incubated with 5 μM calcein red-orange-AM (790 Da) and 5 μM Oregon green 488 BAPTA-2-AM (1752 Da) for 40 minutes at 37° C. Gap junction intercellular communication can be followed by simultaneously labeling cells with calcein red-orange as a gap junction permeable tracer dye and the gap junction channel impermeable dye Oregon green 488 BAPTA-2. Donor cells preloaded were remove form the plate by trypsinization. Preloaded cells were layered (‘parachuted’) over the top of the unlabeled recipient cells cultured in at a 1:4 donor to receiver ratio. Cells were allowed to attach for various periods 1 hours, and then carefully washed 3 times and fixed in fresh 2% PFA 10 min RT and rinse 3 times again. The cells were examined with a fluorescence microscope. For calcein red-orange transfer, the threshold was adjusted to clearly distinguish the dye-transfer boundaries. The dye transfer positive criterion was detecting the calcein red-orange/Oregon green 488 BAPTA-2 with contact cells calcein red-orange positive and Oregon green 488 BAPTA-2 negative. The dye transfer was almost undetectable (<1%). The images were taken in places where we found Oregon green 488 BAPTA-2 green positive cells.

[4] = target: T3, hemichannel opening in mouse bone osteocytes (Mus musculus, UniProt P23242); assay: Evans blue dye uptake in mechanically loaded tibias in vivo; settings: 25 mg/kg injected 2 hr before Evans blue dye, tibia loaded 10 min
T3 construct: from tissue; host or cells: tibial bone osteocytes of living WT mice (Cx43 cKO mice as negative control)
Experimental: FIG. 17. […] Mouse IgG or Cx43(M1) mAb (25 mg/kg) was injected 2 hr before Evans blue dye injection Into WT and Cx43 cKO mice. 30 min after dye injection, left (L) tibias were mechanically loaded once for 10 min. Mice were euthanized and perfused with 50 ml PBS. Tibias were isolated and fixed and bone tissue sections were prepared. Bar, […]. The arrowheads indicate dye uptake.
Determining the effect a compound on the opening of hemichannels in osteocytes in bone tissue in vivo. One example of an in vivo assay to analyze hemichannels in osteocytes uses 3-4 month old mice or rats. The animals are weighed. A test reagent is introduced into the animal through intraperitoneal (IP) injection. After 2-4 hours, fluorescence tracer dyes (i.e. Evans blue, Alexa 594) are injected into lateral tail vein of the animal or by IP injection. Note: up to 1% of animal's body weight in volume can be injected. In certain aspects the animal is warmed prior to tail vein injection to dilate the tail vein. After 2-4 hours, the animal is scarified and tibial and femur bones free of muscle tissues are dissected and washed multiple times with PBS. […] The bone sections can be examined under fluorescence microscope and the degree of osteocytes in the bone taking up tracer dyes are quantified using Image J. […]

[5] = target: T4, gap junctions (HeLa cells transfected with Cx43) (Homo sapiens, UniProt P17302); assay: Microinjection dye transfer (dye coupling) assay for gap junctions; format: cell-based; settings: HeLa cells transfected with Cx43, mAbs for 3 h
T4 construct: expressed in transfected cells; host or cells: HeLa cells
Experimental: (§1) Dye uptake assay was performed in the presence of EtBr with or without mAbs for 20 min. (B) HeLa cells transfected with Cx43 were incubated with mAbs for 3 h and a signal cell was microinjected with AlexaFluor 488 to evaluate the extent of dye transfer assayed for gap junctions.
Dye coupling assay for gap junctions. MLO-Y4 cells were plated on collagen coated 35 mm dish and incubated with recording medium (HCO3^− free αMEM medium buffered with 10 mM HEPES). Cells were microinjected using a micromanipulator InjectMan NI 2 and Femtojet both from Eppendorf (Eppendorf) at 37° C. with alexafluor 350 (Invitrogen, Eugene, Oregon, USA) (10 mM in PBS). Dye transfer was measured after 2 minutes of alexafluor 350 injection. The index of dye coupling was scored counting the number of cells that were dye transferred. Dye coupling was observed under an inverted microscope equipped with Xenon arc lamp illumination and a Nikon eclipse (Nikon, Japan) (excitation wavelengths 330-380 nm; emission wavelengths above 420 nm).

Cx43 hemichannels [6] = target: T1, Cx43 hemichannels; assay: Dye uptake assay for hemichannel activity in low Ca2+ and Mg2+ media; format: cell-based; design: endogenous in cells; host or cells: MLO-Y4 osteocytic cells; settings: MLO-Y4 cells, mAbs for 20 min
Experimental: as §1
(§2) Dye uptake for hemichannel activities. Dye uptake measurements were evaluated using snap shot photographs. MLO-Y4 cells were plated on the collagen coated 35 mm dish and incubated with recording medium, HCO3^− free saline medium buffered with 10 mM HEPES salt composition in mM, 154 NaCl, 5.4 KCl, 1.8 CaCl2, 1.0 MgCl2, 5 Glucose. Medium with low concentration of divalent cation (low[X^2]) was added 0.5 mM EGTA but not CaCl2 and MgCl2. The recording or low[X^2] containing 50 μM EtBr for snap shot recording. Cells were exposed to 100 μM of EtBr during 5 min, then rinsed 3 times with PBS and fixed with 2% […]. At least 3 microphotographs of fluorescence fields were taken with a 10× dry objective in an inverted microscope (Carl Zeiss) with a rhodamine filter. The image analysis was made offline with the software image J. The average of pixel density of 30 random cells was measured.

Cx43 hemichannels [7] = target: T1, Cx43 hemichannels; assay: Dye uptake after fluid flow shear stress in MLO-Y4 cells; format: cell-based; design: endogenous in cells; host or cells: MLO-Y4 osteocytic cells; settings: mAbs 20 min pretreatment, fluid flow shear stress 8 dynes/cm^2 10 min, 100 μM EtBr 5 min
Experimental: FIG. 16. […] MLO-Y4 cells were pretreated with or without mAbs for 20 min. The cells were subjected to fluid flow shear stress at 8 dynes/cm^2 for 10 min and dye uptake was performed with 100 μM EtBr for 5 min. Cells were rinsed, fixed and images were taken under fluorescence microscopy.
as §2
Fluid flow shear stress to open hemichannels. Fluid flow was created by parallel-plate flow chambers separated by a gasket of defined thickness with gravity-driven fluid flow using a peristaltic pump. The thickness of the gasket determined the channel height, which was adjusted along with flow rate to generate stress levels of 16 dyn/cm^2. The circulating medium was α-MEM buffered with 10 mM HEPES.

T2 sequence (P17302 whole entry): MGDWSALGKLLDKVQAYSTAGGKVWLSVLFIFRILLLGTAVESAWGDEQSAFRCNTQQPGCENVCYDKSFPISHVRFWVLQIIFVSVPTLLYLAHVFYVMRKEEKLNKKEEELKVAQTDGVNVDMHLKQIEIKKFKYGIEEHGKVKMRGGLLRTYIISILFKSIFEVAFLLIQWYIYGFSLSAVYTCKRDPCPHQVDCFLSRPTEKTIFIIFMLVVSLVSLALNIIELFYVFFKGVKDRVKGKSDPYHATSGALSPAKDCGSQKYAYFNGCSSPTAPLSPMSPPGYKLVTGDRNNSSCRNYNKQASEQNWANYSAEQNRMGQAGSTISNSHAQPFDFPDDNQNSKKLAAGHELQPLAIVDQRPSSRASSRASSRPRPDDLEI
T1 sequence (P23242 whole entry): as the sequence (P17302 whole entry) above, with D124E, I164V, K243R, S251T, A253P, A257S, Q263P, N341S, S344A, L347V counted along it
T4 sequence (P17302 whole entry): as the sequence (P17302 whole entry) above
Sequence of Cx43 hemichannels in osteocytes (P17302 whole entry): as above
T3 sequence (P23242 whole entry): as the sequence (P17302 whole entry) above, with D124E, I164V, K243R, S251T, A253P, A257S, Q263P, N341S, S344A, L347V counted along it

opening of Cx43 hemichannels in osteoblasts (Cx43 hemichannels [1]) | opening of Cx43 hemichannels in osteoblasts (Cx43 hemichannels [1]; listed as alendronate) | blocking of gap junction channels (parachuting dye transfer) [3] | blocking of hemichannel opening induced by mechanical loading in osteocytes in vivo [4] | blocking of gap junctions (AlexaFluor 488 dye transfer) [5] | blocking of hemichannels (EtBr dye uptake) (Cx43 hemichannels [6]) | blockage of hemichannel opening induced by mechanical loading (Cx43 hemichannels [7]) | Molecule | direct effect on migration of MDA-MB-231 cells (MDA-MB-231 cells) | opening of Cx43 hemichannels in osteocytes [2]
does not open | do not appear to open |  |  |  |  |  | NCCCC(O)(P(=O)(O)O)P(=O)(O)O [AD, alendronate] | does not have a direct effect; also recorded: not seen | induces the opening
 |  | not | blocks | not gap junctions | blocks hemichannels | blockage | M1: mouse monoclonal antibody, heavy chain SEQ ID NO:2, light chain SEQ ID NO:4 (antibody, listed as Mus musculus) heavy: EVQLEQPGAELVKPGASVKLSCKASGYTFTSYYMYWVKQRPGQGLEWIGGINPSNGGTNFNEKFKNKATLTVDKSSSTAYMQLSSLTSEDSAVYYCTREGNPYYTMNYWGQGTSVTVSSAKTTPPSVY light: DIVMTQTPASLAVSLGQRATISYRASKSVSTSGYSYMHWNQQKPGQPPRLLIYLVSNLESGVPARFSGSGSGTDFTLNIHPVEEEDAATYYCQHIRELTRSEGGPSWK |  | 
 |  | blocks |  | blocks gap junctions | not hemichannels | not | M2: mouse monoclonal antibody, heavy chain SEQ ID NO:6, light chain SEQ ID NO:8 (antibody, listed as Mus musculus, V domains shown) VH: EVQLEQPGAELVKPGASVKLSCKASGYTFTSYYMYWVKQRPGQGLEWIGGINPSNGGTNFNEKFKNKATLTVDKSSSTAYMQLSSLTSEDSAVYYCTREGNPYYTMNYWGQGTSVTVSSAKTTPPSVY VL: DIVMTQTPSSLSVSAGEKVTMSCKSSQSLLNSGNQKTYLAWYQQKPGQPPKLLIYGASTRESGVPDRFTGSGSGTDFTLTISSVQAEDLAVYYCQNDHSYPFTFGSGTKLEIKRADAAPTVS |  | 
 |  | blocks |  |  |  | blockage | M7: mouse monoclonal antibody, heavy chain SEQ ID NO:10, light chain SEQ ID NO:12 (antibody, listed as Mus musculus) heavy: LEQPGAELVRPGASVMLSCKASGYIFTTYWMHWLKQRPGQGLDWIGEISPSNGRSNYNKKFKSKATLTVDKSSSTAYMQLSSLTSEDSAVYYCARFDEGDFWGQGTTLIVSSAKTTAPSVYPLAPVCGDTTGSSV light: DIVMTQTPASLAVSLGQRATISYRASKSVSTSGYSYMHWNQQKPGQPPRLLIYLVSNLESGVPARFSGSGSGTDFTLNIHPVEEEDAATYYCQHIRELTRSEGGPSWK |  | 
